Values of other authors, collected in paper PMC3128382.

Target: TbpA (Neisseria gonorrhoeae) (UniProt Q01996)
Chain of UniProt Q01996 (Q01996 25-915): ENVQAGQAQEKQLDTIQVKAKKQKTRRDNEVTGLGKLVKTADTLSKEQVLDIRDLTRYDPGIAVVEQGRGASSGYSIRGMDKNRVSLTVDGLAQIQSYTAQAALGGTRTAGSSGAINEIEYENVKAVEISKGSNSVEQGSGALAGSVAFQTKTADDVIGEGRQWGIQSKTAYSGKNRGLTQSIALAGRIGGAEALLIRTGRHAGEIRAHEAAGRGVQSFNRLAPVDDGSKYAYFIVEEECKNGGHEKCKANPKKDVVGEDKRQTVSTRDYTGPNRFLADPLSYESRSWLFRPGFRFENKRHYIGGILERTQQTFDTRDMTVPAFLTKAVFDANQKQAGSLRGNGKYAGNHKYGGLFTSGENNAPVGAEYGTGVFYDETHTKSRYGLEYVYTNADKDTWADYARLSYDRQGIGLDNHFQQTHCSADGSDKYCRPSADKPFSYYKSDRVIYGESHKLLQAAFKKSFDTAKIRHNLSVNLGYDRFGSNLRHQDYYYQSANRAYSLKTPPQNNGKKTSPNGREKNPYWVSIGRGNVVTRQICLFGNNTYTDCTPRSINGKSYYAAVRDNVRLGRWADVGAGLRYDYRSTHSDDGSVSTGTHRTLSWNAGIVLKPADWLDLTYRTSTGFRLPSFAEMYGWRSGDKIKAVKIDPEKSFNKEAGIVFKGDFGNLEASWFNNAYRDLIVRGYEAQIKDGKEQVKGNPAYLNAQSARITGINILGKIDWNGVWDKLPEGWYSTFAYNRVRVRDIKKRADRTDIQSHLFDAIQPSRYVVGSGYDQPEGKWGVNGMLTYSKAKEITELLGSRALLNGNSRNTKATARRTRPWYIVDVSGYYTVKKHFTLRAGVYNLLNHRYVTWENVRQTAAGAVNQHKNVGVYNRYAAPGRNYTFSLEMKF

Q: Which Kd does the source give for Transferrin (from UniProt P02787) here?
A: 10 nM
